Among the data in a protein production outcome set (Wang et al. 2014) are protein production values, retold here.

The data set can be described thus: label from the status in PepcDB records.
As to “MAASQTPARILVTGVAGNLGRKVVEALASTPWCTSIIGVDWVEQSMQFSPQAAQRLRWVVADLTQADGAWTALLDEVDAVIHLAAIHSTPDATWEQALASYGMTLNVLQAAATRGVRRFVFASSNHAMGAYKDQPLAGTIGPGRLIAELAPAPGTRWHNGIEEVYSLAYGTSKAMGERLCKAVAAVSGGRLSVVALRIGWALPDDNDPNDINHSGTADTPVPGSVPDEASRIALRWFRNMWLSNDDLRQLFIAAVTADPARWPAPAIVVNGVSNNTGMDWGLETGRALIGYEPQDDLYARLTQPA”, the protein production result is “failed”. Consider “MAASSLATQPAMKLAPDDLDSITATTLGHYQQVAEDFREGTRDHDVSQNIDALLRHIQGSAPFTVLDFGCGPGRDLQAFTRLGHVAIGLDGCERFAQMAREDSGCEVWQQDFLKLDLPAERFDGIFANAVLFHIPRQELPRVLKQLHASLKDGGVLFSSNPRGDNQEGWNGPRYGAYHDLAAWQALLTDAGFVELEHYYRPAGLPREQQPWLASVWRKA”, for which the protein production result is given as “failed”. Turning to “MAASVANCCFSVLNASVKIQSSSISSPWCFVSASSLTPRASSNIKRKSSRSDSPSPILNPEKNYPGRVRDESSNPPQKMAFKAFGSPKKEKKESLSDFSRDQQTDPAKIHDASFLNAVVKVSKSNSLSSLKFTLLAFEPTRASFQVYCTHTAPDYSLPWQKQRQFTSTGSAFMIGDGKLLTNAHCVEHDTQVKVKRRGDDRKYVAKVLVRGVDCDIALLSVESEDFWKGAEPLRLGHLPRLQDSVTVVGYPLGGDTISVTKGVVSRIEVTSYAHGSSDLLGIQIDAAINPGNSGGPAFNDQGECIGVAFQVYRSEETENIGYVIPTTVVSHFLTDYERNGKYTGYPCLGVLLQKLENPALRECLKVPTNEGVLVRRVEPTSDASKVLKEGDVIVSFDDLHVGCEGTVPFRSSERIAFRYLISQKFAGDIAEIGIIRAGEHKKVQVVLRPRVHLVPYHIDGGQPSYIIVAGLVFTPLSEPLIEEECEDTIGLKLLTKARYSVARFRGEQIVILSQVLANEVNIGYEDMNNQQVLKFNGIPIRNIHHLAHLIDMCKDKYLVFEFEDNYVAVLEREASNSASLCILKDYGIPSERSADLLEPYVDPIDDTQALDQGIGDSPVSNLEIGFDGLVWA”, the protein production entry was “failed”. Take “MAATTNFTKSMLFPFSHVSGNASLNSQRRTWPKQYKSKNGYRSLRVNGLFGGGNKDNNSEDGQSKAGIFGNMQNMYETVKKAQMVVQVEAVRVQKELAAAEFDGYCAGELVKVTLSGNQQPIRTDITEAAMELGSEKLSQLVTEAYKDAHAKSVVAMKERMSDLAQSLGMPPGLSEGMK”: the protein production entry is “failed”. Turning to “MAAVGSGGYARNDAGEKLPSVMAGVPARRGQSSPPPAPPICLRRRTRLSTASEETVQNRVSLEKVLGITAQNSSGLTCDPGTGHVAYLAGCVVVILDPKENKQQHIFNTARKSLSALAFSPDGKYIVTGENGHRPAVRIWDVEEKNQVAEMLGHKYGVACVAFSPNMKHIVSMGYQHDMVLNVWDWKKDIVVASNKVSCRVIALSFSEDSSYFVTVGNRHVRFWFLEVSTETKVTSTVPLVGRSGILGELHNNIFCGVACGRGRMAGSTFCVSYSGLLCQFNEKRVLEKWINLKVSLSSCLCVSQELIFCGCTDGIVRIFQAHSLHYLANLPKPHYLGVDVAQGLEPSFLFHRKAEAVYPDTVALTFDPIHQWLSCVYKDHSIYIWDVKDINRVGKVWSELFHSSYVWNVEVYPEFEDQRACLPSGSFLTCSSDNTIRFWNLDSSPDSHWQKNIFSNLAPALQMCGRGHSRQPNTPSPGEIAS”, the protein production entry was “failed”. For the sequence “MAAVILESIFLKRSQQKKKTSPLNFKKRLFLLTVHKLSYYEYDFERGRRGSKKGSIDVEKITCVETVVPEKNPPPERQIPRRGEESSEMEQISIIERFPYPFQVVYDEGPLYVFSPTEELRKRWIHQLKNVIRYNSDLVQKYHPCFWIDGQYLCCSQTAKNAMGCQILENRNGSLKPGSSHRKTKKPLPPTPEEDQILKKPLPPEPAAAPVSTSELKKVVALYDYMPMNANDLQLRKGDEYFILEESNLPWWRARDKNGQEGYIPSNYVTEAEDSIEMYEWYSKHMTRSQAEQLLKQEGKEGGFIVRDSSKAGKYTVSVFAKSTGDPQGVIRHYVVCSTPQSQYYLAEKHLFSTIPELINYHQHNSAGLISRLKYPVSQQNKNAPSTAGLGYGSWEIDPKDLTFLKELGTGQFGVVKYGKWRGQYDVAIKMIKEGSMSEDEFIEEAKVMMNLSHEKLVQLYGVCTKQRPIFIITEYMANGCLLNYLREMRHRFQTQQLLEMCKDVCEAMEYLESKQFLHRDLAARNCLVNDQGVVKVSDFGLSRYVLDDEYTSSVGSKFPVRWSPPEVLMYSKFSSKSDIWAFGVLMWEIYSLGKMPYERFTNSETAEHIAQGLRLYRPHLASEKVYTIMYSCWHEKADERPTFKILLSNILDVMDEES”, the protein production entry is on record as “not failed”.
